Test results taken from patent US20260347399A1, “BRAIN PENETRATING PEPTIDES AND METHODS OF USE” (priority 2022, published 2026).
Ends that are not written are not given here.

Columns and labels:
[1] = tested on: WT-GBM, VEGFko, U87MG or NCH421k GBM; test: CVG peptide-phage homing in glioblastoma (four models); type: in vivo, mouse; conditions: peptide-phage i.v., 1 h
Description: To assess homing of CVG peptide in glioblastoma, CVGTNCY (SEQ ID NO:2) peptide-phage was injected iv into mice bearing either WT-GBM, VEGFko, U87MG or NCH421k GBM, and to mice without a tumor. At one hour time point mice were perfused, brains and control organs collected and titered. […] (FIGS. 17A-17B) Distribution of CVG peptide in GBM and brain parenchyma was also assessed. CVGTNCY (SEQ ID NO:2) peptide or its scrambled version (CVYTCNG; (SEQ ID NO: 68)) was injected iv into glioma bearing mice, after 1 hour circulation mice were perfused and tissues of interest snap-frozen in liquid nitrogen.

NRP-1 = target: T1, NRP-1 (Homo sapiens, UniProt O14786); test: Peptide-phage binding on ELISA plate
T1 sequence (O14786 273-586 limits assumed): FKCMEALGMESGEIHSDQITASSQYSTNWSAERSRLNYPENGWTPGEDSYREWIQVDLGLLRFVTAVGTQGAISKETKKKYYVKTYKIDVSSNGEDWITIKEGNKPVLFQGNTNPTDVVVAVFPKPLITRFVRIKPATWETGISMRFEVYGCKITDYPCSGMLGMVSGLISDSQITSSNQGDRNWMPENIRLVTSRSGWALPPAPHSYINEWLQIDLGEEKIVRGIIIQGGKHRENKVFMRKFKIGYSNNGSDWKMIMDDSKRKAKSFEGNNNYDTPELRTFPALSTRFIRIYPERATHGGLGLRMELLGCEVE
Description: (§1) Reelin protein (#8546-MR-050; R&D Systems), NRP-1 b1b2 (wt and mutant) or 5% BSA was immobilized on Costar 96-Well ELISA plate (#3590, Corning Life Sciences, Tewksbury, MA, USA). The multiwell plates were coated with 20 μg/ml recombinant protein in 100 μl of PBS overnight at +4 °C, followed by blocking with 1% bovine serum albumin (BSA) in PBS overnight at +4 °C. The phage (5×10^8 pfu in 100 μl of PBS-BSA) was incubated overnight at +4 °C, followed by 6 washes with PBS containing 1% BSA and 0.1% Tween-20 (washing buffer) to remove background phages. BLT5615 OD600=0.5 containing 2 mM IPTG was used to recover the phages and determine the titer of samples.
(§2) Next, an affinity chromatography was performed to identify a receptor of the CVGTNCY (SEQ ID NO:2), and selected a receptor candidate, which is a secreted extracellular matrix protein Reelin. CVGTNCY (SEQ ID NO:2) binding to Reelin protein was tested by cell free method on ELISA plate. Recombinant human Reelin protein (Ser1221-Gln2666; 163 kDa) was used to coat the ELISA plate and the CVGTNCY (SEQ ID NO:2) peptide-phage was allowed to bind to it. After several washes, the titer of the experiment was determined to rate on the binding efficiency.
(§3) Reelin was identified from affinity chromatography proteomics data. […] The binding efficiency was evaluated based on the titer (PFU/ml) of each sample. […]

mutant NRP1 = target: T2, mutant NRP1 (Homo sapiens, UniProt O14786); test: Peptide-phage binding on ELISA plate
T2 sequence (O14786 273-586 limits assumed): T1 sequence (O14786 273-586 limits assumed)
Description: as §1, §2, §3

WT GBM cells = test: Proximity labelling with peptide-HRP complex and mass spectrometry; type: cell-based, mouse; conditions: WT GBM and Neuro2A proximity labelling, mass spectrometry
Description: To assess the efficiency and specificity of proximity labelling, WT GBM cells were cultured in 24-well plates on polylysine coated glass coverslips until 80-90% confluency. Cerepep and horseradish peroxidase complex (CP-HRP) was prepared by conjugating biotinylated Cerepep to streptavidin-HRP. Control biotin-HRP complex was prepared by conjugating biotin to streptavidin-HRP. 4 μM CP-HRP or biot-HRP in DPBS was added to the cells and incubated at 37 °C for 1 h. The cells were washed with DPBS. 500 μM biotin-phenol (Iris Biotech #41994-02-9) in DPBS was added to the cells and incubated at 37 °C for 30 min. To start the reaction, H2O2 with the final concentration of 1 mM was added to the cells and incubated for 2 min at RT. The reaction was stopped by washing with 100 U/ml catalase in DPBS. Cells were fixed in 4% PFA and biotinylated proteins were detected with Streptavidin-Dylight 550 conjugate (1:500 in DPBS). Nuclei were stained with DAPI and the biotinylation of cells was analyzed with confocal microscopy.
To biotinylate the receptor of Cerepep peptide to be detected with mass spectrometry, the proximity labelling was performed on WT GBM and Neuro2A cells in suspension following the same protocol as with attached cells. […]
Biotin was detected with Streptavidin DyLight550. The WT GBM cells were analyzed with confocal microscopy. […]

Substance	PFU per mg of GBM vs normal brain [1]	ratio of CVG over G7 in GBM vs normal brain [1]	binding to NRP-1 (NRP-1)	binding to mutant NRP1 (mutant NRP1)	most probable receptor candidate (WT GBM cells)
CVGTNCY	greater than normal brain tissue	lower than in normal brain	no binding was detected	no binding was detected	
SRRVISRAKLAAAL [Cerepep, SRRVISRAKLAAAL]					LRP1 was considered the most probable candidate
